{
  "source": "patent US12472269B2",
  "about": "“Liver-specific inducible promoters and methods of use thereof” (ASKBIO INC., priority 2019, dated 2025)",
  "molecules": {"B1": {"name": "PB1-MinTK: promoter: single mouse PBREM element and MinTK minimal promoter, SEQ ID NO: 7 (nucleic acid)", "DNA": "TCTGTACTTTCCTGACCTTGGCACAGTGCCACCATCAACTTGCCTGACACCGATCCGGCCCCGCCCAGCGTCTTGTCATTGGCGAATTCGAACACGCAGATGCAGTCGGGGCGGCGCGGTCCGAGGTCCACTTCGCATATTAAGGTGACGCGTGTGGCCTCGAACACCGAGCGACCCTGCAGCGACCCGCTTAACAGCGTCAACAGCGTGCCGCAGATCTCGAGGAGCTTGGCGAGATTTTCAGGAGCTAAGGAAGCTAAAC", "modifications": "PB1-MinTK"}},
  "system": "Huh7 cells",
  "experiment": "EPO expression (ELISA of medium) from PB1-MinTK in Huh7 cells with CAR-containing plasmid, induction by CITCO",
  "assay_type": "cell-based, human",
  "description": "• Huh7 cells which are a human liver cell line • DPBS: without CaCl2, without MgCl2 (Gibco, 14190-094) • DMEM (Sigma, D6546) • FBS (Sigma, F9665) • Pen-Strep (Sigma, P4333) • Promega Fugene-HD (E2311) • TCPOBOP (Sigma, T2320) • CITCO (Cayman Chemicals Company, 16027) • pcDNA6 plasmid which contains the β-galactosidase gene used as internal control for transfection efficiency (Thermofisher, V22020) • mouse CAR expression plasmid from Jouan et al, 2016 (BioCat GmbH, EX-Z4288-M51-10-GC). This was used as Huh7 is CAR deficient. • β-galactosidase substrate solution (Thermofisher, 75707/75710) • Pierce BCA kit (23225) • LARII (Dual Luciferase Reporter 1000 assay system, Promega, E1980) • EPO ELISA kit (Abcam, ab119522) Method: Day 1 • Cells were seeded onto a 48 well plate at a density of 25,000 cells/300 μl Day 2 • On the day of transfection, DNA to be transfected (CAR plasmid/PB1-MinTK operably linked with luciferase or EPO/pcDNA6 plasmid for internal control) was diluted to a 100 ng/μl stock solution. Per 48 Well Transfection: • 45 ng of DNA (15 ng of each plasmid, pcDNA6, CAR and test plasmid) was mixed with 4.1 μl of Optimem medium. • 0.5 μl of Fusion HD was mixed with 4 μl of Optimem medium. • These 2 solutions were mixed and incubated at room temperature for 15 minutes. • The final solution was then added to the well drop wise. • 3 hrs after transfection, the inducer TCPOBOP was added to the appropriate wells at the indicated concentration. Day 3 • 24 hrs after induction the media was removed from the cells. • The cells were washed once in 300 μl of DPBS • Cells were lysed using 100 μl of passive lysis buffer and incubation with rocking for 15 minutes • The cell debris was pelleted by centrifugation of the plate at max speed in a benchtop centrifuge for 1 min • For luciferase, 10 μl sample was transferred into white 96-well plate and luminescence measured by injection of 50 μl of LARII substrate. • β-galactosidase activity was measured as per manufacturer's instructions (Mammalian β-Galactosidase Assay Kit, 75707/75710, Thermo Scientific) using 25 μl of lysate. 25 μl of lysate was transferred into a microplate well and mixed with 25 μl of β-galactosidase Assay Reagent, equilibrated to room temperature. The mixture was incubated at 37° C. for 30 min and absorbance measured at 405 nm. • Protein concentration was measured as per manufacturer's instructions (Pierce™ BCA Protein Assay Kit, 23225/23227, Thermo Scientific) using 25 μl of lysate. 25 μl of lysate was transferred into a microplate well and mixed with 200 μl of working solution. The mixture was incubated at 37° C. for 30 min, cooled to room temperature and then absorbance measured around 562 nm. The protein concentration was calculated with respect to protein standard curve prepared from assaying standards with known protein concentration.\nTransfections with PB1-MinTk-EPO were performed as described above with the exception that EPO is secreted into the medium. Therefore, medium was collected, and EPO concentration measured as per manufacturer's instructions (ab119522 Erythropoietin (EPO) Human ELISA Kit, Abcam) using an ELISA assay. 50 μl of medium was transferred to a pre-washed microplate wells and mixed with 50 μl of 1× Biotin Conjugated Antibody. The mixture was incubated at room temperature for 1 hour. The wells were washed, 100 μl of Streptavadin-HRP was added and the plate was incubated at room temperature for 15 minutes. The wells were washed and then 100 μl of TMB Substrate Solution. The mixture was incubated at room temperature for 10 minutes. The enzyme reaction was stopped by addition of 100 μl of Stop Solution and absorbance was read at 450 nm. The EPO concentration was calculated with respect to EPO standard curve prepared from assaying standards with known EPO concentration.\nThe PB1-MinkTK promoter was then used to drive expression of the protein EPO, which is of therapeutic interest. […]",
  "data": [
    {"molecule": "B1", "values": [
      {"measurement": "overall EPO expression level relative to CMV-IE", "setting": "CITCO induced (data not shown)", "result": "around 22%"},
      {"measurement": "EPO production", "setting": "addition of up to 2 μM CITCO", "result": "marked increase in the production of EPO"},
      {"measurement": "EPO expression", "setting": "highest concentration of CITCO (3 μM)", "result": "returns towards baseline activity"},
      {"measurement": "EPO expression", "setting": "no addition of the drug (DMSO)", "result": "very little expression of EPO"}
    ]}
  ]
}
